Reference: publication PMC8704484

Experiments:
[1] = target: RPA (RPA1-RPA2-RPA3 heterotrimer) (human, UniProt P27694;P15927;P35244 1-616;1-270;1-121); test: smFRET
[2] = target: T1, BLM-core helicase (human, UniProt P54132 642-1290); test: fluorescence anisotropy
[3] = target: T2, Rep helicase (E. coli, UniProt P09980 1-673); test: fluorescence anisotropy
[4] = target: T3, RecQ helicase (E. coli, UniProt P15043 1-609); test: fluorescence anisotropy
[5] = target: T4, DHX36 (Bos, UniProt Q05B79 1-1010); test: fluorescence anisotropy
T4 sequence: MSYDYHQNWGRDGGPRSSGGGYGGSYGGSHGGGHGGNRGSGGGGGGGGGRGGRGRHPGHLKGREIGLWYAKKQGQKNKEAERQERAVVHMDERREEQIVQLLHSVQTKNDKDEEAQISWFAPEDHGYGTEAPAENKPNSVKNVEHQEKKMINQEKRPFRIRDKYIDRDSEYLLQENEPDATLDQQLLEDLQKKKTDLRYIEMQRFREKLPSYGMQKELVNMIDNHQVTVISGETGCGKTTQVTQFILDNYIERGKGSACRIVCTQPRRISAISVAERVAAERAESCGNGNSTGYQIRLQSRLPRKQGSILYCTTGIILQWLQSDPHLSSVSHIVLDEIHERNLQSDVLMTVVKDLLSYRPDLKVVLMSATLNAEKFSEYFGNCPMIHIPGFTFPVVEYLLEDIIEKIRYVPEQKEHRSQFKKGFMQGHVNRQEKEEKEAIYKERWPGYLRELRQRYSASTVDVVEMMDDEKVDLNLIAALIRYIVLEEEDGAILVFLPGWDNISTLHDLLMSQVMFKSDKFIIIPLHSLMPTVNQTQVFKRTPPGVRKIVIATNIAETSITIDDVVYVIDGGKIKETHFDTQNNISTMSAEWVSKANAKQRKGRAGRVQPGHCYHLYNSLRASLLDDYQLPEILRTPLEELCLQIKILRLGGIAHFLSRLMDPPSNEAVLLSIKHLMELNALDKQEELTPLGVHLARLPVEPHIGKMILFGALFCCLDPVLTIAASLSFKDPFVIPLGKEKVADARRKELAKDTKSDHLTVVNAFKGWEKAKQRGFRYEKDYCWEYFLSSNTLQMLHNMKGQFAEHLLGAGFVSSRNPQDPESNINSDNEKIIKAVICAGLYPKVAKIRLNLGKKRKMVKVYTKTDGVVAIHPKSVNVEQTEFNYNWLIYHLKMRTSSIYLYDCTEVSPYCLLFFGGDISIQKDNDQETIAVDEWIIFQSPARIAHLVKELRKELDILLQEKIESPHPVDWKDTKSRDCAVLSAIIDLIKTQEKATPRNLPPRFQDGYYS

[6] = target: T2, Rep helicase; test: smFRET
[7] = target: T3, RecQ helicase; test: smFRET
[8] = target: T4, DHX36; test: smFRET
[9] = target: T1, BLM-core helicase; test: smFRET

T1 sequence (P54132 642-1290): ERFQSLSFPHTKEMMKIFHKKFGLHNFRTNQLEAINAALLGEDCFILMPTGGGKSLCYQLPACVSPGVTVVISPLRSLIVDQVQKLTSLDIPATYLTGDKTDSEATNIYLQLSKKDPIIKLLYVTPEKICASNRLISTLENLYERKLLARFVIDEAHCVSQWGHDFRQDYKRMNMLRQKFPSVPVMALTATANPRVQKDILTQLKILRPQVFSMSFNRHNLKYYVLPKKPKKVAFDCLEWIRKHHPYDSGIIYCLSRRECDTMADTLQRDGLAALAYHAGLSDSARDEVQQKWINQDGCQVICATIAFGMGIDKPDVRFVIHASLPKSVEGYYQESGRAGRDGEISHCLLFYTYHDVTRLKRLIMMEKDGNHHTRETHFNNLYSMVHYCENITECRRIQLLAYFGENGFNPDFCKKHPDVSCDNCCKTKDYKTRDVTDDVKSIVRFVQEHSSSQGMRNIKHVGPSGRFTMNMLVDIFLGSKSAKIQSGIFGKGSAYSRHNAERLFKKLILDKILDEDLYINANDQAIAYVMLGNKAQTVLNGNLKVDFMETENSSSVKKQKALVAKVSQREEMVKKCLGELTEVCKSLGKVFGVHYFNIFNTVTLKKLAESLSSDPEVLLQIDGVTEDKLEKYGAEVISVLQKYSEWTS
T3 sequence (P15043 whole entry): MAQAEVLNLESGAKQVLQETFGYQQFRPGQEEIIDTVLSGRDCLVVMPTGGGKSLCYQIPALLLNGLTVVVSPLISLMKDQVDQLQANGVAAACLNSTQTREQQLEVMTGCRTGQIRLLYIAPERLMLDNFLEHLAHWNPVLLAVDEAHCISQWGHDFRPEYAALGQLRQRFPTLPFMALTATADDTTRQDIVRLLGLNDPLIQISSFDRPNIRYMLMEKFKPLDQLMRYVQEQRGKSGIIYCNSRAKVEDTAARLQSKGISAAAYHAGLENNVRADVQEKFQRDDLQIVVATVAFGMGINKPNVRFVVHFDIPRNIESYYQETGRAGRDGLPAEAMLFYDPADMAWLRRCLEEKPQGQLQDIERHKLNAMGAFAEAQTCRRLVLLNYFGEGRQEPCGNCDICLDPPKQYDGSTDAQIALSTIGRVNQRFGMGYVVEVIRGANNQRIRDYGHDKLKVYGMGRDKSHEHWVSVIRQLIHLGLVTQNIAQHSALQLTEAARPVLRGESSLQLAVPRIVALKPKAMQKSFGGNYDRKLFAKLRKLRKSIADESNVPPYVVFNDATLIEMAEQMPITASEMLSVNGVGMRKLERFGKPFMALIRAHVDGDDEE
T2 sequence (P09980 whole entry): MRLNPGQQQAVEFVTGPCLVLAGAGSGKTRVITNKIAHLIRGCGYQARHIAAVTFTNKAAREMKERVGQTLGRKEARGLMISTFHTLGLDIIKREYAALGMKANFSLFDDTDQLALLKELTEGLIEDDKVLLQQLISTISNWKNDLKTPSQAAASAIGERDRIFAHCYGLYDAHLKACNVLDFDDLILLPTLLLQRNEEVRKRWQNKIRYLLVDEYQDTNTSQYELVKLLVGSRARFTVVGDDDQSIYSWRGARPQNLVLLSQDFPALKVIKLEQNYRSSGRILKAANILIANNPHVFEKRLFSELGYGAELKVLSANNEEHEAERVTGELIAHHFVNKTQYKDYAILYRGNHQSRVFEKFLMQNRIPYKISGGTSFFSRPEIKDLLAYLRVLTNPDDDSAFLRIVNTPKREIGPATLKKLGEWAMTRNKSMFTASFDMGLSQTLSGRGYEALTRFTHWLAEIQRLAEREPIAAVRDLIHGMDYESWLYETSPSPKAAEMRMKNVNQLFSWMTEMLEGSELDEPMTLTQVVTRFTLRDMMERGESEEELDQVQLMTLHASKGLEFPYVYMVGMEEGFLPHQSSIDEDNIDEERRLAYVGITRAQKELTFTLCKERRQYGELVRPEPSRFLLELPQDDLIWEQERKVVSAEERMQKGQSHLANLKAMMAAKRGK
RPA (RPA1-RPA2-RPA3 heterotrimer), sequence (P27694 whole entry, chain 1 of 3): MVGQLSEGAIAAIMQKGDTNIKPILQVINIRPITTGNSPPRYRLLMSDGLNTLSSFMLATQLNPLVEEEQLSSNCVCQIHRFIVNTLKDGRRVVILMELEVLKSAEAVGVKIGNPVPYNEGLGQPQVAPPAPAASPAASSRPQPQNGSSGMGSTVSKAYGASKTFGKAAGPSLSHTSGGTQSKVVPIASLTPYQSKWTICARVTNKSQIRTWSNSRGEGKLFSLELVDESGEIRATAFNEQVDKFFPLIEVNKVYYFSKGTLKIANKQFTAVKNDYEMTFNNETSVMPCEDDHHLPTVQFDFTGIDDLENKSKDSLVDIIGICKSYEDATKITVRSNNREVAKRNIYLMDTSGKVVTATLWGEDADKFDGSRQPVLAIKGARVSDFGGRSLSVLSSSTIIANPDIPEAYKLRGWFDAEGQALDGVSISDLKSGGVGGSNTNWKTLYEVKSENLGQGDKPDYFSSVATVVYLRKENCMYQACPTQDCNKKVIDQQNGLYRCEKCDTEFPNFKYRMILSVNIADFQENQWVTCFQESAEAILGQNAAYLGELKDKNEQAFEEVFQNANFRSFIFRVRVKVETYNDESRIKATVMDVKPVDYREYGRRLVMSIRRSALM
RPA (RPA1-RPA2-RPA3 heterotrimer), sequence (P15927 whole entry, chain 2 of 3): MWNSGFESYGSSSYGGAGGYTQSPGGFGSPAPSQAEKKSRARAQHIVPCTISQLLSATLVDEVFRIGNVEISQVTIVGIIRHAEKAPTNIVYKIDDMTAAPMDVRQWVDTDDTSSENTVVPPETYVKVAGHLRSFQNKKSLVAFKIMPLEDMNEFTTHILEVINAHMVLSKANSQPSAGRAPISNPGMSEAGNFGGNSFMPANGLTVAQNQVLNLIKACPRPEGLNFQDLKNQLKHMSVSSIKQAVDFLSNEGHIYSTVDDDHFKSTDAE
RPA (RPA1-RPA2-RPA3 heterotrimer), sequence (P35244 whole entry, chain 3 of 3): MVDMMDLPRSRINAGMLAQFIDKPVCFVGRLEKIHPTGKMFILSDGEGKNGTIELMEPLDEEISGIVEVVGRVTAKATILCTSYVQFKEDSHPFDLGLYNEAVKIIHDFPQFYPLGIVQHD

B1: d27Bcl2-Mut / Stem (mixed)
DNA 1: GCGTGGCACCGGTAATAGGAAATAGGATTCTCTCTCTCTTCCTCTCTCGCTC
DNA 2: TCCTATTTCCTATTACCGGTGCCACGC
B1: binds [1].

B2: Duplex (24nt-F/24nt) (dsDNA)
DNA 1: GCCCTGGTGCCGACCAACGAAGGT
DNA 2: ACCTTCGTTGGTCGGCACCAGGGC
B2: no binding [2].

B3: F-Bcl2-IM (structured_DNA)
DNA: CCCGCCCCCTTCCTCCCGCGCCC
B3 was tested, and the Kd [2] was 22 nM, the binding result [3] was “binds” and the binding result [4] was “binds”. B3: binds [5].

B4: F-Bcl2-G4 (structured_DNA)
DNA: GGGCGCGGGAGGAAGGGGGCGGG
B4 was tested, and the Kd [2] was 97.7 nM.

B5: d27Bcl2-IM / Stem (no loading tail) (mixed)
DNA 1: GCGTGGCACCGGTAATAGGAAATAGGATTCCCGCCCCCTTCCTCCCGCGCCCT
DNA 2: TCCTATTTCCTATTACCGGTGCCACGC
B5: binds [6]; binds [7]; binds [8]. B5: binds [9].
